Data published in patent US9725702B2, “Laccase from ganoderma lucidum capable of enhancing enzymatic degradation of lignocellulolytic biomass” (DANMARKS TEKNISKE UNIVERSITET, priority 2012, dated 2017).

Assays:
[1] = Michaelis constant (Km) of laccase for ABTS, Hanes-Wolf plot; format: biochemical; settings: substrate ABTS
[2] = Temperature stability of LacGL1 laccase at pH 4.7; format: physicochemical; settings: for activity retained: pH 4.7
Method: FIG. 9. The temperature stability profile of LacGL1 laccase as a function of LN [U/mL] vs. incubation time at pH 4.7 and 0.1 M citrate-phosphate buffer. […] The relative difference between single measurements was <5%.
FIG. 10. LacGL1 laccase stability evolution plot at optimum pH of 4.7 and two different temperature values (40° C. and 50° C.). Since the plot is a continuation of temperature stability plot (FIG. 9), the first measurement is given after 1 h. Laccase residual activity [%] is calculated based on activity value of laccase measured at pH 4.7 and 25° C. The relative difference between single measurements was <5%.
The predicted optimal conditions for the LacGL1 laccase activity were validated by measuring the effect of temperature on the relative activity of LacGL1 laccase at pH 4.7. […] (FIG. 10).

[3] = Laccase-cellulase catalyzed hydrolysis of pretreated biomass, glucose release; format: biochemical; settings: with cellulase 1 or 2, pH 5.1, 50° C., 30 hour
Method: FIG. 15. A graphical comparison of glucose released over time during hydrolysis of pre-treated wheaty straw at pH 5.1 and 50° C. by each of commercial enzyme preparations Cellulase 1 (CC2) [A]; or Cellulase 2 [B], either alone, or in combination with a laccase enzyme; the tested laccases being respectively LacGL1 and GLlac1 (LacJooSS; Q9HG17) derived from G. lucidum; and laccases derived from Agaricus bisporus (Sigma 40452), Pleurotus ostreatus (Sigma 75117) and, Trametes versicolor (Sigma 51639).
The commercial fungal laccases were purchased as lyophilized protein samples from Sigma Aldrich. A solution of each of the above 5 laccases was prepared in a citric buffer containing 20% of glycerol (pH 5.1, 100 mM).
Two different commercially available cellulase enzyme preparations used in the comparative study were “Cellulase 1” and “Cellulase 2”, which were tested in combination with each of the laccases listed above.
The three different types of pretreated biomass used in the comparative study were sugarcane bagasse, barley straw and wheat straw. The source and pre-treatment of the sugarcane bagasse by steam explosion was as set out in Example 9. […] The composition of the dry and the pretreated biomass were determined according to the US National Renewable Energy Laboratory (NREL) procedures (Sluiter et al, 2010).
The laccase-cellulase catalyzed hydrolysis of the pretreated biomass samples to release glucose was performed as follows: Hydrolysis of 5% (w/v) samples of pretreated sugarcane bagasse, barley straw, and wheat straw biomass were assayed using an Enzyme/Substrate (E/S) ratio of 0.064% w/w for laccases and of 0.4% w/w for each commercial cellulase preparation in each hydrolysis reaction. The E/S dosage was based on the total protein concentration used, as determined using Pierce BCA (BiCinchoninic Acid) protein assay kit microplate procedure according to manufacturer's instruction (Thermo Fisher Scientific, Rockford, US). […]
Laccase and cellulase-mediated hydrolysis of the 3 biomass forms, measured as glucose release, are shown graphically in FIGS. 13, 14 and 15. […]

[4] = Substrate specificity of laccase (relative rate of product formation); format: biochemical
Method: The laccase activity was measured based on a modified method of Ters et al. (2009). The laccase activity was defined as the amount of the enzyme required to oxidise 1 μmol of ABTS per minute at 25° C., and pH 4.7. The assay mixture contained: 0.1 M citrate-phosphate buffer (255 μL, pH 4.7), ABTS (5 μL, 4 mM (ABTS stock solution)), and pre-diluted laccase (5 μL) that ensured the linear range of Michaelis-Menten kinetics. The oxidation of ABTS was monitored at 420 nm (ε420=36800 M^−1cm^−1) for 2 min. in an Infinite 200 microtiter plate reader (Tecan, Salzburg, Austria). Laccase activity assays on the substrates: hydroquinone (248 nm), 2.6-dimethoxyphenol (470 nm), and guaiacol (436 nm) was done similarly with the substrate concentration as described in Table 2 using the following extinction coefficient values: 17.542 M^−1cm^−1, 35.645 M^−1cm^−1, and 6.400 M^−1cm^−1, respectively (Minussi et al. 2007). The data collection was monitored by the program Tecan i-control version 1.5.14.0 (Tecan, Salzburg, Austria). The calculated laccase activity was corrected by the absorbance of a control sample which contained: 0.1 M citrate-phosphate buffer (255 μL, pH 4.7), ABTS (5 μL, 4 mM), and 5 μL of distilled water instead of the enzyme. All determinations of the laccase activity were performed in duplicates, with an average sample standard deviation less than 5%.
LacGL1 laccase was able to oxidize both ABTS and other phenolic compounds (Table 5) such as: hydroquinone, guaiacol, and 2.6-dimethoxyphenol, however in a slower rate than for ABTS.

glucose release compared to GLlac1 [3]: the same
glucose release compared to the other tested laccases ([3]; p<0.05): significantly enhanced
Laccase relative rate of product formation ([4]; substrate 2.6-Dimethoxyphenol 1 mM): 61%
Laccase relative rate of product formation ([4]; substrate ABTS 1 mM): 100%
Laccase relative rate of product formation ([4]; substrate Guaiacol 1 mM): 66%
Laccase relative rate of product formation ([4]; substrate Hydroquinone 1 mM): 80%
B1: LacGL1: Fungal laccase from Ganoderma lucidum CBS229.93 (SEQ ID NO: 5/9), recombinantly expressed in Pichia pastoris X-33 (protein, listed as Ganoderma lucidum)
chain: GIGPKTDLTISNADVAPDGYTRAAVVVNGVFPAPLITGNKGDRFQLNVIDQMTNHTMLKSTSIHWHGFFQKGTNWADGPAFINQCPISSGHSFLYDFQVPDQAGTFWYHSHLSTQYCDGLRGPFVVYDPKDPLKKLYDIDDDSTVITLTDWYHVAARLGPRFPLGSDSTLINGLGRSTTNVTADLAVINVTQGKRYRFRLVSLSCDPNYTFSIDDHNMTVIEADGIETQPVTVNAIQIFSAQRYSFVLTANQTIDNYWIRANPNFGNVGFTDGINSAILRYAGADPVEPTTSQQTTQNLLNEVDLHPFVPKRTPGQPTQGGVDTAINMVFNFNGSNFFINNASFVPPTVPVLLQILSGAQAAQDLLPSGSVYTLPVNKSIELTFPATANAPGAPHPFHLHGHAFAVVRSAGSTVYNYDNPVWRDVVSTGTPAAGDNVTIRFQTDNPGPWFLHCHIDFHLEAGFAVVFAEDPTDTSLANPVPKAWSDLCPTYDALSVDDQ
modifications: mat_peptide (1)..(499) Mature LacGL1 laccase (minus signal peptide)
Km ([1]; laccase expressed in Ganoderma lucidum CBS229.93 (native)): 107 µM
Km ([1]; recombinantly expressed in Pichia pastoris): 122 µM
change of activity ([2]; 25, 40 and 50° C., pH 4.7, within an hour): did not change significantly
laccase activity remaining ([2]; 60° C., pH 4.7, within an hour): 19%
laccase activity remaining ([2]; 70° C., pH 4.7, within an hour): 3%
activity retained ([2]; after 5 h at 50° C.): 23%
activity retained ([2]; after 24 h at 40° C.): 33%
